Results on 1 molecule are retold here after patent publication US20050180952A1, “Methods for intradermal delivery of therapeutics agents” (priority 2003, published 2005).

One assay deals with B 16F10 melanoma cells. Put plainly: Effects of routes of IL-12 administration on mortality of tumor-containing mice. It is filed as in vivo, C57BL/6J mice. Particulars: Day 28. As to the method:
C57BL/6J mice (Charles Rivers Labs, Inc) were inoculated SC with 1×10^6 B 16F10 melanoma cells (ATCC) on the upper right flank. One week following tumor inoculation (Day 7), the mice were randomized and treated with 100 ng rmIL-12 (R&D Systems) in 50 μL PBS solution through either ID or SC injections near tumor inoculation site, or an IP injection (n=25/condition). An additional condition of ID controls was run using 50 μL PBS solution alone. ID treatment was administered with a 34G, 1 mm needle using a modified mantoux method. SC and IP doses were given with standard 25G×¾″ needle. Treatment was continued every other day through Day 13 for a total of four doses. Tumor measurements in mm^2 (length×width) were collected on Days 7, 11, 14, 18, 21, 25 and 28. Blood samples were collected on Days 0, 14, 21 and 28 for IL-12 and IFN-gamma analysis. Draining lymph node and spleen tissue samples were collected from five animals in each condition on Days 14 and 24 for FACS analysis of CD49b (NK) cells. Mortality data were collected on 10 pre-selected animals that were not used for blood sampling or FACS analysis from each condition. Mortality was determined through either natural death or euthanasia due to tumor size of greater than 400 mm^2. Statistical data were calculated using a t-Test: Two-Sample Assuming Unequal Variances. See, e.g., Brunda, M., J. Exp. Med., 178: 1223-1230 (1993) and Leonard et al., Blood, 90: 2541-2548 (1997), both of which are incorporated herein by reference.

For a further assay, the system named is B16F10 melanoma cells. As to the kind of experiment: Effects of site of ID delivery (tumor side vs contralateral side) on antitumor activity of IL-12. It is filed as in vivo, C57BL Mice. On the procedure:
C57BL Mice were inoculated subcutaneously (SC) with 1 million B16F10 melanoma cells (ATCC, Inc.). Treatment was initiated with IL-12 injections 7 days post-inoculation at 100 ng given as an ID dose on the tumor bearing or contralateral side dose. IL-12 doses were repeated every other day for a total of 4 treatments. As a control, the same volume of complete medium (PBS) was injected ID on the tumor bearing side. True negatives were also run in conjunction for serum and tissue samples (n=15/condition). Weights and tumor size were measured on days 7, 11, 14, 18 and 21. Blood samples were also collected at weekly intervals for IL-12 analysis. Draining lymph node and spleen samples were collected at 14 and 24 days for T cell, B cell and NK cell, and GP100 FACS analysis was performed. Two tumor diameters at right angles were measured with digital calipers, and the average tumor size was plotted with respect to days post inoculation with tumor cells.

Another assay deals with CD49b (NK) cells. Put plainly: NK cells count in draining lymph node by FACS analysis. It is filed as in vivo, C57BL/6J mice. Particulars: ID delivery vs other conditions. As to the method:
C57BL/6J mice (Charles Rivers Labs, Inc) were inoculated SC with 1×10^6 B 16F10 melanoma cells (ATCC) on the upper right flank. One week following tumor inoculation (Day 7), the mice were randomized and treated with 100 ng rmIL-12 (R&D Systems) in 50 μL PBS solution through either ID or SC injections near tumor inoculation site, or an IP injection (n=25/condition). An additional condition of ID controls was run using 50 μL PBS solution alone. ID treatment was administered with a 34G, 1 mm needle using a modified mantoux method. SC and IP doses were given with standard 25G×¾″ needle. Treatment was continued every other day through Day 13 for a total of four doses. […] Mortality was determined through either natural death or euthanasia due to tumor size of greater than 400 mm^2. Statistical data were calculated using a t-Test: Two-Sample Assuming Unequal Variances. […]
The right side superficial inguinal draining lymph node (DLN) and the spleen were excised individually from 5 mice per each treatment group into Petri dishes containing cold HBSS (Invitrogen Life Technologies, Carlsbad, Calif.) for the DLN. […] The washed cells were resuspended in 1 ml of cold FacsFlow buffer and kept on ice in the dark until analyzed by flow cytometry using a FACS Vantage SE. Cell analysis was designed to exclude B cells and quantify CD4+ cells, CD8+ cells, and CD49b+ (NK cells). […]

B1: IL-12: rmIL-12 (R&D Systems), interleukin-12 cytokine given in PBS solution (protein, UniProt P43431 23-215; P43432 23-335, looked up)
Interleukin-12 subunit alpha: RVIPVSGPARCLSQSRNLLKTTDDMVKTAREKLKHYSCTAEDIDHEDITRDQTSTLKTCLPLELHKNESCLATRETSSTTRGSCLPPQKTSLMMTLCLGSIYEDLKMYQTEFQAINAALQNHNHQQIILDKGMLVAIDELMQSLNHNGETLRQKPPVGEADPYRVKMKLCILLHAFSTRVVTINRVMGYLSSA
Interleukin-12 subunit beta: MWELEKDVYVVEVDWTPDAPGETVNLTCDTPEEDDITWTSDQRHGVIGSGKTLTITVKEFLDAGQYTCHKGGETLSHSHLLLHKKENGIWSTEILKNFKNKTFLKCEAPNYSGRFTCSWLVQRNMDLKFNIKSSSSSPDSRAVTCGMASLSAEKVTLDQRDYEKYSVSCQEDVTCPTAEETLPIELALEARQQNKYENYSTSFFIRDIIKPDPPKNLQMKPLKNSQVEVSWEYPDSWSTPHSYFSLKFFVRIQRKKEKMKETEEGCNQKGAFLVEKTSTEVQCKGGNVCVQAQDRYYNSSCSKWACVPCRVRS
Turning to B1, the “survivability compared to delivery through other routes or control” value with B 16F10 melanoma cells (ID delivery) is “greater than 200%”. Also, the surviving animals is 7 out of 10 with B 16F10 melanoma cells (ID delivery 100 ng), 3 out of 10 in the assay on B 16F10 melanoma cells (IP delivery 100 ng) and 3 out of 10 with B 16F10 melanoma cells (SC delivery 100 ng). For the same molecule, the “effectiveness relative to other conditions” value in the assay on B16F10 melanoma cells (100 ng ID contralateral side) is “not as effective as those dosed near the tumor, but were better than the IP condition”. The tumor size is on record as 75 mm^2 in the assay on B16F10 melanoma cells (100 ng ID contralateral side (IDcs), Day 14); 75 mm^2 in the assay with B16F10 melanoma cells (100 ng ID tumor side (IDts), Day 14); 43 mm^2 in the assay with B16F10 melanoma cells (100 ng IDcs, Day 18); 126 mm^2 in the assay with B16F10 melanoma cells (100 ng IDts, Day 18); 142 mm^2 with B16F10 melanoma cells (100 ng IDts, Day 21). For the same molecule, the “overall tumor growth reduction” value in the assay on B16F10 melanoma cells (100 ng ID near the tumor injection site) is listed as “greatest reduction in overall tumor growth”. Moreover, the tumor size increase with B16F10 melanoma cells (100 ng IDcs, Day 14 to Day 18) worked out at 91%; in the assay on B16F10 melanoma cells (100 ng IDcs, Day 18 to Day 21), 29%; in the assay on B16F10 melanoma cells (100 ng IDts, Day 14 to Day 18), 68%; in the assay on B16F10 melanoma cells (100 ng IDts, Day 18 to Day 21) it was 14%. In the assay on B16F10 melanoma cells (100 ng, Day 21), the “final tumor size for IDts smaller than IDcs” value was found to be 23%. Moreover, the “NK cells in DLN” value in the assay with CD49b (NK) cells (Day 14 (one day post regimen)) was “increase in NK cells is apparent”; in the assay on CD49b (NK) cells (Day 24) it was “relative increase above the other conditions”.
